Where a chain is given by its changes, count along the chain named. Names may count otherwise.
How the values were obtained:
[1] = molecular target: T1, human CD73 ECD fused C-terminally to human IgG1 Fc (human, UniProt P21589 27-549, limits assumed); test: SPR, Fc-tagged CD73 ECD captured, Fab injected
T1 construct: Expressed in ExpiCHO; also called Hs CD73 ECD; Fc-tagged antigen
T1 sequence: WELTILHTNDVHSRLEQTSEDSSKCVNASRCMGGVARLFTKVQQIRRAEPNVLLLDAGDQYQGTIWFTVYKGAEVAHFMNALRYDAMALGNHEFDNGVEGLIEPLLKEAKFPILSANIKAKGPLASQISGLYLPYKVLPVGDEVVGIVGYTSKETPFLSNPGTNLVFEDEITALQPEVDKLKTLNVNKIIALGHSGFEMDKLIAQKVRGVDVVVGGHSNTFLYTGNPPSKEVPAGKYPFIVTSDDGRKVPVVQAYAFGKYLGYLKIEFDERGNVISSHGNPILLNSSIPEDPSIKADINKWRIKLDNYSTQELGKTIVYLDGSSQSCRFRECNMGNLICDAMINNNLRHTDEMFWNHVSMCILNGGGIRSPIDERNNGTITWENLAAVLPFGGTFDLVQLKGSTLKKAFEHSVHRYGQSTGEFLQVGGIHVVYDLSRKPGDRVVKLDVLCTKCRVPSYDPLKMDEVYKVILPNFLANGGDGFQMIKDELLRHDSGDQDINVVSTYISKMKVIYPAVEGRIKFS
Procedure: (§1) Kinetic binding analysis of anti-CD73 mAbs and Fab fragments was performed by Surface Plasmon Resonance (SPR), using a Continuous Flow Microspotter (CFM, Wasatch Microfluidics, Salt Lake City, US) combined with an IBIS MX96 SPR instrument (IBIS Technologies, The Netherlands). CD73 cDNAs coding for the extracellular domains of human and cynomolgus CD73 were synthesized and each cloned into a vector containing a CMV promoter and either a C-terminal 6× histidine sequence (SEQ ID NO: 45) for His-tagged CD73 ECD, or a human IgG1 Fc sequence (AA P101-K330), resulting in fusion of IgG1 Fc C-terminally to the cloned CD73 ECD. The His-tagged and Fc-fusion constructs were transiently expressed using an ExpiCHO™ expression system and purified either by standard Ni-NTA chromatography or standard MabSelect™ SuRe™ procedures, respectively. Anti-CD73 Fab fragments were generated by digesting full-length IgG1 antibodies with GingisKHAN enzyme, using a kit provided by Genovis (Sweden). Affinities of Fab fragments were measured by capturing Fc-tagged antigens on a G-a-hu-IgG Fc SensEye® for 15 minutes using the CFM. After spotting, the SensEye® was positioned in the IBIS MX96 biosensor and immobilized antigens were fixed by SensEye FixIt kit. Kinetic analysis was performed by injecting monomeric Fab fragments at increasing concentrations from 0.8 nM to 300 nM. After each cycle of Fab fragment injection, the surface was regenerated by 10 mM glycine pH 3, 10% glycerol. Fab association was performed for 15 minutes and antigen dissociation was performed for 15 minutes. Affinities of full-length monoclonal antibodies (mAbs) were measured by capturing mAbs on a G-a-hu-IgG Fc SensEye® (Ssens BV, The Netherlands) for 15 minutes using a Continuous Flow Microspotter (CFM, Wasatch Microfluidics, Salt Lake City, US). After spotting, the SensEye was docked in the IBIS MX96 and spotted mAbs were fixed by SensEye FixIt kit (Ssens BV, The Netherlands). Kinetic analysis was performed by applying a kinetic titration series injecting increasing concentrations of His-tagged antigens from 0.16 nM to 10 nM as 2-fold dilutions. The surface was regenerated before the next cycle of cynomolgus antigen injections by 100 mM H₃PO₄, pH 3. MAb association was performed for 15 minutes and antigen dissociation was performed for 45 minutes.

[2] = molecular target: T2, cynomolgus CD73 ECD fused C-terminally to human IgG1 Fc (cynomolgus monkey (Macaca …, UniProt A0A2K5V5U7 27-549)); test: SPR, Fc-tagged CD73 ECD captured, Fab injected
T2 construct: also called Cy CD73 ECD; Fc-tagged antigen; not shown: Human IgG1 Fc (printed as AA P101-K330) fused to the C-terminus of the ECD, and any linker
T2 sequence: T1 sequence with M199T, T350A, V466I
Procedure: as §1

[3] = molecular target: T3, His-tagged cynomolgus CD73 ECD (cynomolgus monkey (Macaca fascicularis)); test: SPR, mAb captured, His-tagged CD73 ECD injected
T3 chain: T1 sequence with M199T, T350A, V466I
Procedure: as §1

[4] = molecular target: T4, His-tagged human CD73 ECD (human, UniProt P21589 27-549); test: SPR, mAb captured, His-tagged CD73 ECD injected
T4 construct: runs as a homodimer of about 124-125 kDa in SEC-MALS; also called CD73-His; CD73-His ECD antigen
T4 sequence: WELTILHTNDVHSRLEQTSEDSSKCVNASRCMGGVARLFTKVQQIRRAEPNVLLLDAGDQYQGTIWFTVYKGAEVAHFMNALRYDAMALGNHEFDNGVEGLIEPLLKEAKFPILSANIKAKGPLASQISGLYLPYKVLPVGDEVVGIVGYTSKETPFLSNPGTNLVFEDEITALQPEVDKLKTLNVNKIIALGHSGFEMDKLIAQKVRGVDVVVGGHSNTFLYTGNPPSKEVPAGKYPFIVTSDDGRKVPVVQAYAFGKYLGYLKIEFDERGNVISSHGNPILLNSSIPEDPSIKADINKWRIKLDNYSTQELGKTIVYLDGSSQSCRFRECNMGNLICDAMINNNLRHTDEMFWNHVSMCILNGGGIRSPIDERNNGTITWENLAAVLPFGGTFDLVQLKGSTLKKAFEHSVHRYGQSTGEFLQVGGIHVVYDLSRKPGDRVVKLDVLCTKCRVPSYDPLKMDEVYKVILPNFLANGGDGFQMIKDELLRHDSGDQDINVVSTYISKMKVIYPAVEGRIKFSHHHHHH
Procedure: as §1

[5] = molecular target: T4, His-tagged human CD73 ECD; test: SEC-MALS, mAb:CD73 0.5:1
Procedure: (§2) Anti-CD73 antibodies and His-tagged CD73 were analyzed in different ratios as well as individually to analyze the size of complexes formed between CD73 homodimer and anti-CD73 antibodies. Samples were prepared by mixing […] of CD73-His with 900, 450, 90 or 0 μmol of antibody diluted into PBS, pH 7.4. Samples were incubated for 30 min at room temperature followed by separation using a UHPLC UltiMate 3000 (Thermo Scientific) and SEC X-Bridge column (Waters) at a flow rate of 1.2 mL/min. Sample running buffer was 0.01 M Citrate, 250 mM L-Arginine.HCl, pH 6.0. Following HPLC separation, all samples were analyzed using a MiniDAWN TREOS MALS detector (Wyatt) and Optilab T-rEX refractive index detector (Wyatt). Data plots were generated using Graph Pad Prism.

[6] = molecular target: T4, His-tagged human CD73 ECD; test: SEC-MALS, mAb:CD73 0.1:1
Procedure: as §2

[7] = molecular target: T4, His-tagged human CD73 ECD; test: SEC-MALS, mAb:CD73 1:1
Procedure: as §2

[8] = molecular target: T5, human CD73 expressed on cells (human, UniProt P21589 27-549); test: flow cytometry on CHO-S cells transiently expressing human CD73, AF647 anti-human IgG (H+L) secondary, GeoMean
T5 construct: also called 5'-NT; human CD73 on CHO-S cells
T5 sequence: T1 sequence
Procedure: The anti-CD73 antibodies were incubated with the hamster CHO-S cell line transiently expressing human or cynomolgus CD73 for 30 minutes at 4° C. The cells were washed twice and subsequently incubated for an additional 20 minutes with AF647-conjugated secondary anti-human IgG (H+L) antibody. After the washing step, antibody binding was detected using the high-throughput flow cytometer iQue Screener PLUS (Sartorius) measuring the GeoMean of AF647 signal in each well. Every concentration was assayed in triplicate and a 12-point titration curve was generated for each antibody.

B1: 21127 Fab fragment (Fab, V domains shown, not shown: small tags and cut ends)
VH: EVQLVESGGGLVQPGRSLRLSCAASGFTFDDFAMHWVRQAPGKGLEWVSGISWNSGNIGYADSVKGRFTISRDNAKNSLYLQMNSLRAEDTALYYCAKDKSGSPYYYYGMDVWGQGTMVTVSS
VL: DIQMTQSPSSVSASVGDRVTITCRATQGISRRLAWYQQKPGKAPKLLIYAASSLQSGVPSRFSGSGSGTDFTLTISSLQPEDFATYYCQQANSFPLTFGGGTKVEIKR
notes: Made by digesting the full-length IgG1 with GingisKHAN enzyme (Genovis)
- Kd [1]: 54600 pM
- Kd [2]: 55300 pM

B2: antibody 21163 (antibody, human IgG1, kappa, L234A L235A, V domains shown)
VH: EVQLVESGGGLVQPGGSLRLSCAASGFSFSTYWMNWVRQAPGKGLEWVANIKQDGSEKYYVDSVKGRFTISRDNAKNSLYLQMNSLRAEDTAVYYCARDISSSWFYYYGMDVWGQGTTVTVSS
VL: DIQLTQSPSFLSASVGDRVTITCRASQGISSYLAWYQQKPGKAPKLLIYAASTLQSGVPSRFSGSGSGTEFTLTISSLQPEDFATYYCQQLNSYPPTFGGGTKVEIKR
notes: Fully human IgG1-LALA (L234A/L235A), kappa
- Kd [3]: 660 pM
- koff [3]: 6.2e-05 s⁻¹
- kon [3]: 100000 M⁻¹ s⁻¹
- Kd [4]: 910 pM
- koff [4]: 5.5e-05 s⁻¹
- kon [4]: 65000 M⁻¹ s⁻¹
- molecular mass of complex, Peak 2 (MW, kDa) [5]: 278 kDa
- molecular mass of complex, Peak 2 (MW, kDa) [6]: 279 kDa
- molecular mass of complex, Peak 2 (MW, kDa) [7]: 280 kDa

B3: antibody 21046 (antibody, human IgG1, kappa, L234A L235A, V domains shown)
VH: EVQLVESGGGLVQPGRSLRLSCVASGFTFDDYAMHWVRQAPGKGLEWVSGISWNSGSIGYADSVKGRFTISRDNAKNSLYLQMNSLRAEDTAFYYCAQGGYAILTALEYWGQGTLVTVSS
VL: B1 VL with V11L, T26S, R31N, R32Y, Y36F, L46S, R61K, A91Y, F94Y
notes: as for B2
- Kd [3]: 50 pM
- koff [3]: 1.1e-05 s⁻¹
- kon [3]: 210000 M⁻¹ s⁻¹
- Kd [4]: 40 pM
- koff [4]: 8.3e-06 s⁻¹
- kon [4]: 190000 M⁻¹ s⁻¹
- molecular mass of complex, Peak 2 (MW, kDa) [5]: 199 kDa
- molecular mass of complex, Peak 2 (MW, kDa) [6]: 969 kDa
- molecular mass of complex, Peak 2 (MW, kDa) [7]: 382 kDa

B4: 21163 Fab fragment (Fab, V domains shown, not shown: small tags and cut ends)
VH: B2 VH
VL: B2 VL
notes: as for B1
- Kd [1]: 78300 pM
- koff [1]: 0.015 s⁻¹
- kon [1]: 200000 M⁻¹ s⁻¹
- Kd [2]: 77600 pM
- koff [2]: 0.016 s⁻¹
- kon [2]: 200000 M⁻¹ s⁻¹

B5: 21046 Fab fragment (Fab, V domains shown, not shown: small tags and cut ends)
VH: B3 VH
VL: B1 VL with V11L, T26S, R31N, R32Y, Y36F, L46S, R61K, A91Y, F94Y
notes: as for B1
- Kd [1]: 800 pM
- koff [1]: 0.0005 s⁻¹
- kon [1]: 610000 M⁻¹ s⁻¹
- Kd [2]: 800 pM
- koff [2]: 0.00052 s⁻¹
- kon [2]: 620000 M⁻¹ s⁻¹

B6: antibody 21028 (antibody, human IgG1, kappa, L234A L235A, V domains shown)
VH: EVQLVESGGGLVQPGRSLRLSCAASGFSFDDYAMHWVRQAPGKGLEWVSGISWHSDNIGYADSVKGRFTISRDNAKNSLYLQMNSLRAEDTAFYYCAKDGPRYRGSYYYFDYWGQGTLVTVSS
VL: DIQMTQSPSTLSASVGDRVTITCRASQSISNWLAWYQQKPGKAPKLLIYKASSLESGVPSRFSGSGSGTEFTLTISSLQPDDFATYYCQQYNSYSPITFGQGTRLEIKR
notes: Fully human IgG1-LALA (L234A/L235A), kappa; germline-corrected (Symplex-corrected) variable domains
- binding result [8]: binds

Reference: patent US20210070876A1 (LES LABORATOIRES SERVIER, published 2021)
